# Reference: IntAct's records for PubMed 22151054
# B1: Myeloid leukemia factor 1 (Homo sapiens), P58340 (parent)
# chain: MFRMLNSSFEDDPFFSESILAHRENMRQMIRSFSEPFGRDLLSISDGRGRAHNRRGHNDGEDSLTHTDVSSFQTMDQMVSNMRNYMQKLERNFGQLSVDPNGHSFCSSSVMTYSKIGDEPPKVFQASTQTRRAPGGIKETRKAMRDSDSGLEKMAIGHHIHDRAHVIKKSKNKKTGDEEVNQEFINMNESDAHAFDEEWQSEVLKYKPGRHNLGNTRMRSVGHENPGSRELKRREKPQQSPAIEHGRRSNVLGDKLHIKGSSVKSNKK
# Variants of: B1
# Details: with 1433e_human YWHAE
row,Variant,effect of a mutation on the interaction
1,F33A,decreasing interaction
